Drawing on publication PMC7060279 (2020), this text covers koff for 1 molecule.

Common to all, as to assay: SPR
(In general: Surface plasmon resonance follows binding to a sensor surface in real time, without labels.)

Test [1] deals with human recombinant TLR4 protein (without MD2) (human, UniProt O00206 24-631).
Test [2] has as its target T1, integrin αvβ3 protein (UniProt P06756 31-1048; P05106 27-718).
T1 chain 1: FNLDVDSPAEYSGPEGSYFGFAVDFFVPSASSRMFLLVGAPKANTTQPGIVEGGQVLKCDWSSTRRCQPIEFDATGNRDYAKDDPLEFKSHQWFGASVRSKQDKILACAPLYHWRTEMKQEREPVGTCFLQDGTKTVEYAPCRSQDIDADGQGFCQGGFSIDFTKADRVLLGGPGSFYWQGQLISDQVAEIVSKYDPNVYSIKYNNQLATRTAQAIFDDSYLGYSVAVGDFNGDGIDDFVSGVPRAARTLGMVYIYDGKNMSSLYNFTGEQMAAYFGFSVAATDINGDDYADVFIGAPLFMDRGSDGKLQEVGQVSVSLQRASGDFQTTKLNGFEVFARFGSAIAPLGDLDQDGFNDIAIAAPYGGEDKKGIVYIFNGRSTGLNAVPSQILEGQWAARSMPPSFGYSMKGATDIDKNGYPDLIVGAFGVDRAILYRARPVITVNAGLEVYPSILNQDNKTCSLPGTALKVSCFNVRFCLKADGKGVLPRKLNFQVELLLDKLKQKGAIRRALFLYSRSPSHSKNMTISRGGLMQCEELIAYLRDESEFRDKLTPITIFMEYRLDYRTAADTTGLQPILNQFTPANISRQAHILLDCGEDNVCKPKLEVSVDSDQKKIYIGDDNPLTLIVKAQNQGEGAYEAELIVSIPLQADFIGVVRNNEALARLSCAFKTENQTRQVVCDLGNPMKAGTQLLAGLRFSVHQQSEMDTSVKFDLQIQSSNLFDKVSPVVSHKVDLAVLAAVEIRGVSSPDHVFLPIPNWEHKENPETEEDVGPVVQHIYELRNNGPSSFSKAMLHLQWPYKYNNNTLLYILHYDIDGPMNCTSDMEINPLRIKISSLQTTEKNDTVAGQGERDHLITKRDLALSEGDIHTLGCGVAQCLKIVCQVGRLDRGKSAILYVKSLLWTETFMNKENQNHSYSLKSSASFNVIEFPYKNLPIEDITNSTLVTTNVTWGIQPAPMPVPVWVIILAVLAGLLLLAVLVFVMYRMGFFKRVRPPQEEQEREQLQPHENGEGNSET
T1 chain 2: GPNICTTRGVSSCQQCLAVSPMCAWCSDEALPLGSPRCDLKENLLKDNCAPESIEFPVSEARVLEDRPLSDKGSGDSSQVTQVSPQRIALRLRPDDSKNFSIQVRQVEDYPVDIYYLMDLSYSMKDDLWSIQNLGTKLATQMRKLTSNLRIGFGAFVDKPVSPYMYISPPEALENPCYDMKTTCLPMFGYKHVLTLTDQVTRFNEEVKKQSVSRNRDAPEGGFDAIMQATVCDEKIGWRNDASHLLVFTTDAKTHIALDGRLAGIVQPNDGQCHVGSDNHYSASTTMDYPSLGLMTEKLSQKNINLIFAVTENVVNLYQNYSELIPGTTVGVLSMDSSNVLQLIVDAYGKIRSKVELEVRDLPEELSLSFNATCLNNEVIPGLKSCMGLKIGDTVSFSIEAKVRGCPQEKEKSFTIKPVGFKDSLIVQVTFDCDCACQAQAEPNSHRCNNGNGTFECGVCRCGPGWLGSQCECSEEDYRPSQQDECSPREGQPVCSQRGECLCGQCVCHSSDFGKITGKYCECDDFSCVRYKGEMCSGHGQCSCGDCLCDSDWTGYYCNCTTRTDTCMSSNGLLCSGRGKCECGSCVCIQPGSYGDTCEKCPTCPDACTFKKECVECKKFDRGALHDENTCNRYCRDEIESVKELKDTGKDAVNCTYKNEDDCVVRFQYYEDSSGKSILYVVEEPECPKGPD

Test [3] concerns the target human recombinant TLR2 protein (human, UniProt O60603 21-588).

human recombinant TLR2 protein, sequence (O60603 21-588): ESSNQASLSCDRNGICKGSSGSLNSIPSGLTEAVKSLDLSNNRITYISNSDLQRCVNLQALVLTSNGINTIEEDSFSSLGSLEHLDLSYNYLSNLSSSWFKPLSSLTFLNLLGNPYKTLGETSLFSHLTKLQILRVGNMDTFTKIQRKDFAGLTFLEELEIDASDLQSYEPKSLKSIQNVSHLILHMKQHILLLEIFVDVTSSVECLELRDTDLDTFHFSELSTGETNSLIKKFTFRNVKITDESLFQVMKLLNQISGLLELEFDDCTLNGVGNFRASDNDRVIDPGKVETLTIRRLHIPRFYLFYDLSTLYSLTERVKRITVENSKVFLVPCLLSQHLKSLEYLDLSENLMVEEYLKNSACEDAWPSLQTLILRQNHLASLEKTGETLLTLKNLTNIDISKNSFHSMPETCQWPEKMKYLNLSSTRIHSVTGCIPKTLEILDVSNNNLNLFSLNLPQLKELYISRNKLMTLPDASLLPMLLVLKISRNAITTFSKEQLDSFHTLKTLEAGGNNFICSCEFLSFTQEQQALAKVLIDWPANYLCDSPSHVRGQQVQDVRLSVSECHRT
human recombinant TLR4 protein (without MD2), sequence (O00206 24-631): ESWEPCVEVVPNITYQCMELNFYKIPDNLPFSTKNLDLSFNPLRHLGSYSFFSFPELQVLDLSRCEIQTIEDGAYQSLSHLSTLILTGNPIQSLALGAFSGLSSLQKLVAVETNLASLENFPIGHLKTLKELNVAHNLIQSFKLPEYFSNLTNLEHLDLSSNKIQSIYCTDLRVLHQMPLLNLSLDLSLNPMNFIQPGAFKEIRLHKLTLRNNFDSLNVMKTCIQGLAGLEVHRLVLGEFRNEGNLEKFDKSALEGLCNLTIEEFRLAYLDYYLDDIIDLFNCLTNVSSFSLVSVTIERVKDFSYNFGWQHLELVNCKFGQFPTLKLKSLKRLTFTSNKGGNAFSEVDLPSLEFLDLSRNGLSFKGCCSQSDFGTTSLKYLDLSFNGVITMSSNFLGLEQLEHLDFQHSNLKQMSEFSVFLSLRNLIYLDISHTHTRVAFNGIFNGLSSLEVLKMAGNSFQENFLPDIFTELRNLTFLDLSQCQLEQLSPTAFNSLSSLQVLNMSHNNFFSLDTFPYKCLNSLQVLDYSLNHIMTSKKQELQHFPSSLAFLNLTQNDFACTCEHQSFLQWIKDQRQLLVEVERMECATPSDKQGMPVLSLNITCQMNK

B1: CCN1-WT (recombinant matricellular protein CCN1) (natural protein)
chain: TCPAACHCPLEAPKCAPGVGLVRDGCGCCKVCAKQLNEDCSKTQPCDHTKGLECNFGASSTALKGICRAQSEGRPCEYNSRIYQNGESFQPNCKHQCTCIDGAVGCIPLCPQELSLPNLGCPNPRLVKVSGQCCEEWVCDEDSIKDSLDDQDDLLGLDASEVELTRNNELIAIGKGSSLKRLPVFGTEPRVLFNPLHAHGQKCIVQTTSWSQCSKSCGTGISTRVTNDNPECRLVKETRICEVRPCGQPVYSSLKKGKKCSKTKKSPEPVRFTYAGCSSVKKYRPKYCGSCVDGRCCTPLQTRTVKMRFRCEDGEMFSKNVMMIQSCKCNYNCPHPNEASFRLYSLFNDIHKFRD
A word on the koff: it is a measure of how fast the partners let go of each other. On to B1, for which the off-rate (koff) in test [1] worked out at 0.00288 s⁻¹; in test [2], 0.0193 s⁻¹; in test [3] it was 0.0146 s⁻¹.
